# Source: US20080194019
# Changes are numbered by the printed parent chain. Numbers in names are those of the source.
# T1: STRAD (human, from pCDNA4 HisMax), Q7RTN6
# T1 chain: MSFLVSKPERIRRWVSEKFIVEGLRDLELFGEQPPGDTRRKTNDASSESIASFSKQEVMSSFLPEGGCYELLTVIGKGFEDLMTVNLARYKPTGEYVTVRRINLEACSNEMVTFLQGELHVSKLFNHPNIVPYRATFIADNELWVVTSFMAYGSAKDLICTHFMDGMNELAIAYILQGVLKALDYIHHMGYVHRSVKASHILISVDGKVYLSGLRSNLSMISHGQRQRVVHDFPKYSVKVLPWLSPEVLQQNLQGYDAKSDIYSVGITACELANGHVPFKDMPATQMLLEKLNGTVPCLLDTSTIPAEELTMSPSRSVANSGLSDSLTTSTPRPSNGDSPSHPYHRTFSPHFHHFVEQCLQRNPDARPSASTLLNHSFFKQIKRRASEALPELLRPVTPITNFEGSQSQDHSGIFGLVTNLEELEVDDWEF
# B1: STRAD-activated LKB1 (Flag-tagged wild-type human LKB1 co-expressed with STRAD, Flag immunoprecipitate) (protein)
# chain 1: MEVVDPQQLGMFTEGELMSVGMDTFIHRIDSTEVIYQPRRKRAKLIGKYLMGDLLGEGSYGKVKEVLDSETLCRRAVKILKKKKLRRIPNGEANVKKEIQLLRRLRHKNVIQLVDVLYNEEKQKMYMVMEYCVCGMQEMLDSVPEKRFPVCQAHGYFCQLIDGLEYLHSQGIVHKDIKPGNLLLTTGGTLKISDLGVAEALHPFAADDTCRTSQGSPAFQPPEIANGLDTFSGFKVDIWSAGVTLYNITTGLYPFEGDNIYKLFENIGKGSYAIPGDCGPPLSDLLKGMLEYEPAKRFSIRQIRQHSWFRKKHPPAEAPVPIPPSPDTKDRWRSMTVVPYLEDLHGADEDEDLFDIEDDIIYTQDFTVPGQVPEEEASHNGQRRGLPKAVCMNGTEAAQLSTKSRAEGRAPNPARKACSASSKIRRLSACKQQ
# chain 2: T1 chain
# B2: Flag-tagged human LKB1, wild-type, immunoprecipitated from HT1080 cells (protein)
# chain: B1 chain 1
# B3: Flag-tagged human LKB1, kinase dead (K78I), immunoprecipitated from HT1080 cells (protein)
# chain: B1 chain 1 with K78I
# Experiments:
# [1] = molecular target: LxT peptide library (x-x-x-x-Leu-x-Thr-x-x-x peptides with a fixed lysine tail K-K-K)
# [2] = molecular target: MBP-AMPKa (1-312) bacterial fusion protein
# [3] = molecular target: R-T peptide library (arginine fixed at the -1 position of a threonine phosphoacceptor)
# [4] = molecular target: T1, STRAD (human, from pCDNA4 HisMax), …
Protein,"phosphorylation of degenerate peptide libraries (32P incorporation, p81 paper) [1]",AMPK kinase activity towards the SAMS peptide after in vitro phosphorylation by LKB1 [2],trans-phosphorylation of MBP-AMPKα in vitro [2],"phosphorylation of degenerate peptide libraries (32P incorporation, p81 paper) [3]",LKB1 autophosphorylation in vitro [4],in vitro phosphorylation of MBP-AMPKα (32P incorporation; phospho-Thr172 immunoblot) [2],phosphorylation of the SAMS peptide (32P γ-ATP) (SAMS peptide),AMPK kinase activity towards the SAMS peptide after in vitro kinase reaction with LKB1 [2]
B1,leucine at the -2 position was strongly selected,"induced AMPK kinase activity an average of 27 and 50 fold, respectively",co-expression of LKB1 with STRAD led to a dramatic proportional increase in LKB1 autophosphorylation and trans-phosphorylation of MBP-AMPKα,Arginine in the -1 position was selected over random amino acids,–,–,–,–
B2,–,"induced AMPK kinase activity an average of 27 and 50 fold, respectively",–,–,co-expression of LKB1 with STRAD led to a dramatic proportional increase in LKB1 autophosphorylation,wild-type but not kinase-dead LKB1 immunoprecipitated from mammalian cells efficiently phosphorylated a bacterially expressed maltose-binding protein (MBP) fusion product of the AMPKα catalytic subunit in vitro,LKB1 alone was incapable of detectably phosphorylating the SAMS peptide,–
B3,–,–,–,–,–,wild-type but not kinase-dead LKB1 immunoprecipitated from mammalian cells efficiently phosphorylated,–,Kinase-inactive LKB1 alone or coexpressed with STRAD was unable to activate AMPK
